Data published in the supplement of paper PMC10126150.
± gives the standard deviation of the averaged measurements.

test system: ATP; test: switch fluorescence ratio, 500 uM ATP over buffer (Cy3 cluster intensity, sum of 5 cycles each) (fold (ratio)); higher = stronger signal-on switching upon ATP binding; sequences stand for … in TCGTCGGCAGCGTCAGATGTGTATAAGAGACAGTTTTTTTTTTTTTTTTTTTTTTTTT…TC; settings: aptamer strand: ATP DNA aptamer (quencher-CACCTGGGGGAGTATTGCGGAGGAAGG + anchor), 100 nM annealed; ATP concentration: 500 uM
In short: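 After annealing to 100 nM quencher-labelled ATP aptamer, Cy3-labelled switching-strand clusters on a modified Illumina MiSeq flow-cell were imaged in selection buffer. A second image followed after 15 min with 500 uM ATP at 22 °C, and five such buffer/ATP cycles were done, each separated by NaOH stripping and re-annealing. The fluorescence ratio, averaged per switch-domain sequence, is summed target-cycle over summed buffer-cycle Cy3 intensity per cluster, with clusters outside 100-1000 RFU excluded.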
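Further: ATP exposure 15 min at 22 °C before imaging.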

Sequence | switch fluorescence ratio
TTGCTCTTGG | 0.956 ± 0.0095
GGAGAGGGTC | 1.049 ± 0.0064
GGGCGAGAGG | 1.02 ± 0.033
TAGCCCGGTG | 1.47 ± 0.53
TAGGAGTTGC | 0.971 ± 0.052
ATCCGCTTTA | 3.28 ± 0.25
TACGGGAGGC | 1.02 ± 0.032
ACATAGTTTG | 0.9892 ± 0.0034
TTTGTTAGTG | 0.972 ± 0.021
ATTTATGGAT | 1 ± 0.023
GGATAGTGTG | 0.997 ± 0.014
AATACTGTCG | 1.01 ± 0.016
CGATCGGTAC | 3.3 ± 0.38
GAAAGGGGGA | 1.02 ± 0.025
AGATTATGCA | 1.01 ± 0.048
TGAAGCCTAC | 2.57 ± 0.28
TGGGTGGCTC | 1.011 ± 0.0015
GCGATTGATG | 1.02 ± 0.026
GACCTTTTT | 1.02 ± 0.042
ACGGGGAGTT | 1.05 ± 0.031
GATTCGTGGC | 0.906 ± 0.14
AGGCGGAGTT | 0.97011 ± 0.00078

Sequence | switch fluorescence ratio
TTACGTTGGG | 0.997 ± 0.035
GTACGAGTGC | 0.976 ± 0.019
AGTTAGTGAC | 1.02 ± 0.024
TTCGCCAATG | 1.07 ± 0.03
GGGAAGGGAG | 0.983 ± 0.028
CGGTTTGGAT | 1.01 ± 0.035
GATTGGTGAG | 1.001 ± 0.0046
ATAACGATCT | 1.04 ± 0.022
TTGCATTTTG | 0.985 ± 0.025
TGGCACATAT | 1.04 ± 0.054
TACGGGGGAA | 1.26 ± 0.31
TATGTCTCGC | 0.995 ± 0.044
TTGGGGAATG | 0.999 ± 0.049
TGTTATCAGC | 1 ± 0.047
CGTGATAAAG | 0.9911 ± 0.0089
GACGGCGTCG | 0.974 ± 0.011
TAGTTGGGTT | 0.986 ± 0.041
CGCTTTAATT | 0.989 ± 0.032
TCTTCATGCG | 1.07 ± 0.053
GGGAATGTT | 0.992 ± 0.022
ATTCTCTTAT | 1.02 ± 0.059
ATTAAATACC | 1.25 ± 0.29

Sequence | switch fluorescence ratio
GGGAAAGGTT | 1.01 ± 0.026
AATTGTTCGT | 0.98 ± 0.036
TAATTGTCTA | 1 ± 0.043
TTTGAAGTGT | 0.997 ± 0.02
GAACTAAATG | 1 ± 0.055
ATTTGGACGA | 1 ± 0.03
GTTGATCAAT | 1.03 ± 0.031
ACAGAAATGG | 1.014 ± 0.0011
AGCGTTCTTA | 1.02 ± 0.041
ACCAGGTGTG | 3.53 ± 0.34
GGTTAGGGGG | 1 ± 0.052
TTGGAAACCA | 1.02 ± 0.015
AAAGGCCGGA | 1.03 ± 0.041
TTTCGATTTG | 1.02 ± 0.012
GCAGAAAAAT | 1.04 ± 0.023
GAGTGCAGGG | 0.994 ± 0.03
TTCAGGGGCG | 1.07 ± 0.13
ATGTTTATGG | 0.987 ± 0.012
CGTTTAAAAG | 0.975 ± 0.022
GGTATAATAC | 1.23 ± 0.041
AGAAGGGACG | 0.973 ± 0.021
TTGGCGACAT | 1.02 ± 0.021

Sequence | switch fluorescence ratio
AAGGGTTGCT | 1.01 ± 0.042
TTTTGAGTTA | 0.976 ± 0.039
GAGCCCAGGG | 1.96 ± 0.82
AGGTGCGGGA | 1.02 ± 0.052
CACGAGGGGA | 1.02 ± 0.057
TTGGGTTTTT | 1.04 ± 0.1
CTAGAAAGTT | 0.9778 ± 0.0029
CATTAAAGAT | 1.01 ± 0.077
TAAAACCAGG | 1.21 ± 0.082
AAAAGTTTTG | 1.01 ± 0.011
GGGTATTATG | 1.02 ± 0.028
TGTGGGGTGG | 0.999 ± 0.025
TGATAGGGGA | 1.01 ± 0.047
TATGTTGTGA | 0.9902 ± 0.0039
ATCCGGTCGC | 1.04 ± 0.029
CCTGACTTTG | 0.972 ± 0.043
AGGGACGCGA | 1.26 ± 0.037
TTTTCGGCTT | 0.965 ± 0.031
CATTTTCCGC | 1.81 ± 0.57
